system: Escherichia coli TOP10; experiment: shrunken log2 fold change of peptide-encoding DNA abundance (4.5 h post-induction vs induction); higher = less antimicrobial activity (less host growth inhibition); settings: time post-induction: 4.5 h; library: site-saturation at positions 5, 18, 19, 20
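Also: peptides expressed intracellularly from a pBAD plasmid library in pooled LB shake-flask culture, induced with 0.3% L-arabinose, DNA abundance read by NGS, three biological replicates, DESeq2 with apeglm shrinkage.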

| Sequence | shrunken log2 fold change |
| --- | --- |
| RRIRMRPPRLPRPRPRPTRWPRP | 2.21 |
| RRIRWRPPRLPRPRPRPHEEPRP | 0.0119 |
| RRIRRRPPRLPRPRPRPCLYPRP | -0.117 |
| RRIRIRPPRLPRPRPRPCEPPRP | -0.28 |
| RRIRHRPPRLPRPRPRPKCGPRP | 0.0031 |
| RRIRYRPPRLPRPRPRPVWAPRP | 0.205 |
| RRIRKRPPRLPRPRPRPPHKPRP | 0.835 |
| RRIRGRPPRLPRPRPRPCPDPRP | 0.359 |
| RRIRLRPPRLPRPRPRPDATPRP | 0.398 |
| RRIRHRPPRLPRPRPRPGPHPRP | -0.14 |
| RRIRVRPPRLPRPRPRPSDEPRP | -0.463 |
| RRIRDRPPRLPRPRPRPCKCPRP | -0.147 |
| RRIRRRPPRLPRPRPRPVIGPRP | 0.149 |
| RRIRWRPPRLPRPRPRPDQWPRP | 0.399 |
| RRIRCRPPRLPRPRPRPRPQPRP | 0.776 |
| RRIRIRPPRLPRPRPRPTYCPRP | -0.214 |
| RRIRFRPPRLPRPRPRPIYGPRP | -0.289 |
| RRIRCRPPRLPRPRPRPNQRPRP | -0.093 |
| RRIRKRPPRLPRPRPRPIHHPRP | 0.0077 |
| RRIRCRPPRLPRPRPRPHVLPRP | -0.172 |
| RRIRQRPPRLPRPRPRPQQKPRP | -0.023 |
| RRIRGRPPRLPRPRPRPCKGPRP | -0.0939 |
| RRIRIRPPRLPRPRPRPETDPRP | -0.0362 |
| RRIRERPPRLPRPRPRPHHSPRP | -0.603 |
| RRIRQRPPRLPRPRPRPMNNPRP | -0.2 |

| Sequence | shrunken log2 fold change |
| --- | --- |
| RRIRLRPPRLPRPRPRPFIQPRP | -0.418 |
| RRIRNRPPRLPRPRPRPYKEPRP | -0.0525 |
| RRIRSRPPRLPRPRPRPDHNPRP | -0.308 |
| RRIRHRPPRLPRPRPRPFDLPRP | -0.211 |
| RRIRWRPPRLPRPRPRPMEVPRP | -0.00973 |
| RRIRARPPRLPRPRPRPRMPPRP | 0.251 |
| RRIRFRPPRLPRPRPRPFQEPRP | -0.00353 |
| RRIRHRPPRLPRPRPRPTLYPRP | -0.362 |
| RRIRMRPPRLPRPRPRPRCAPRP | 1.12 |
| RRIRIRPPRLPRPRPRPHRWPRP | -0.0221 |
| RRIRRRPPRLPRPRPRPNCCPRP | 0.0381 |
| RRIRHRPPRLPRPRPRPGDLPRP | 0.163 |
| RRIRKRPPRLPRPRPRPRTYPRP | 0.0895 |
| RRIRFRPPRLPRPRPRPIYTPRP | -0.424 |
| RRIRFRPPRLPRPRPRPLCMPRP | -0.888 |
| RRIRSRPPRLPRPRPRPTTNPRP | 0.00407 |
| RRIRWRPPRLPRPRPRPFNMPRP | -0.298 |
| RRIRWRPPRLPRPRPRPFKPPRP | -0.231 |
| RRIRYRPPRLPRPRPRPPCMPRP | -0.315 |
| RRIRCRPPRLPRPRPRPRQHPRP | -0.0138 |
| RRIRWRPPRLPRPRPRPSNWPRP | 0.135 |
| RRIRVRPPRLPRPRPRPDALPRP | -0.0285 |
| RRIRPRPPRLPRPRPRPWWRPRP | 0.14 |
| RRIRNRPPRLPRPRPRPCTDPRP | 0.233 |
| RRIRRRPPRLPRPRPRPHKWPRP | 2.57 |

| Sequence | shrunken log2 fold change |
| --- | --- |
| RRIRKRPPRLPRPRPRPRPPPRP | 1.15 |
| RRIRSRPPRLPRPRPRPRSYPRP | -0.066 |
| RRIRTRPPRLPRPRPRPFAQPRP | -0.178 |
| RRIRARPPRLPRPRPRPFEVPRP | 0.455 |
| RRIRRRPPRLPRPRPRPDDTPRP | 0.139 |
| RRIRGRPPRLPRPRPRPGAGPRP | 1.05 |
| RRIRQRPPRLPRPRPRPARIPRP | -0.0224 |
| RRIRDRPPRLPRPRPRPEMWPRP | 2.04 |
| RRIRMRPPRLPRPRPRPNNSPRP | -0.327 |
| RRIRCRPPRLPRPRPRPPDMPRP | -0.000808 |
| RRIRVRPPRLPRPRPRPVNKPRP | -0.186 |
| RRIRSRPPRLPRPRPRPNIAPRP | 0.0275 |
| RRIRERPPRLPRPRPRPDGNPRP | -0.032 |
| RRIRGRPPRLPRPRPRPMYTPRP | 0.876 |
| RRIRIRPPRLPRPRPRPQMLPRP | -0.633 |
| RRIRLRPPRLPRPRPRPIAGPRP | -0.086 |
| RRIRGRPPRLPRPRPRPATCPRP | 0.512 |
| RRIRNRPPRLPRPRPRPFWYPRP | 0.0148 |
| RRIRRRPPRLPRPRPRPAKMPRP | 0.113 |
| RRIRYRPPRLPRPRPRPWFYPRP | -1.48 |
| RRIRDRPPRLPRPRPRPGIVPRP | 0.0969 |
| RRIRCRPPRLPRPRPRPMCMPRP | -0.232 |
| RRIRDRPPRLPRPRPRPCMWPRP | 0.569 |
| RRIRIRPPRLPRPRPRPLEMPRP | -0.373 |
| RRIRTRPPRLPRPRPRPSAYPRP | -0.144 |

| Sequence | shrunken log2 fold change |
| --- | --- |
| RRIRWRPPRLPRPRPRPSKWPRP | -0.327 |
| RRIRIRPPRLPRPRPRPSGFPRP | -0.175 |
| RRIRMRPPRLPRPRPRPECHPRP | -0.0482 |
| RRIRKRPPRLPRPRPRPAHNPRP | 0.473 |
| RRIRTRPPRLPRPRPRPMYPPRP | 0.0537 |
| RRIRVRPPRLPRPRPRPRPVPRP | 0.515 |
| RRIRTRPPRLPRPRPRPQRIPRP | -0.131 |
| RRIRWRPPRLPRPRPRPTRGPRP | 0.329 |
| RRIRDRPPRLPRPRPRPWRAPRP | 0.132 |
| RRIRSRPPRLPRPRPRPDFQPRP | -0.0122 |
| RRIRLRPPRLPRPRPRPWGYPRP | -0.359 |
| RRIRGRPPRLPRPRPRPKHAPRP | 1.21 |
| RRIRPRPPRLPRPRPRPTYEPRP | 0.0844 |
| RRIRRRPPRLPRPRPRPVSAPRP | 0.588 |
| RRIRHRPPRLPRPRPRPFEFPRP | -0.0195 |
| RRIRMRPPRLPRPRPRPGFHPRP | -0.039 |
| RRIRYRPPRLPRPRPRPEQYPRP | -0.0207 |
| RRIRVRPPRLPRPRPRPMPLPRP | -0.348 |
| RRIRERPPRLPRPRPRPIERPRP | 0.00274 |
| RRIRVRPPRLPRPRPRPMQPPRP | -0.0152 |
| RRIRARPPRLPRPRPRPIVEPRP | 0.207 |
| RRIRTRPPRLPRPRPRPTTYPRP | -0.441 |
| RRIRYRPPRLPRPRPRPFKIPRP | 0.0602 |
| RRIRCRPPRLPRPRPRPKICPRP | -0.0571 |
| RRIRHRPPRLPRPRPRPSTSPRP | -0.478 |

| Sequence | shrunken log2 fold change |
| --- | --- |
| RRIRPRPPRLPRPRPRPLDVPRP | -0.146 |
| RRIRFRPPRLPRPRPRPMDQPRP | -0.247 |
| RRIRTRPPRLPRPRPRPTYLPRP | -0.827 |
| RRIRMRPPRLPRPRPRPRFMPRP | 0.385 |
| RRIRVRPPRLPRPRPRPGSWPRP | 0.463 |
| RRIRKRPPRLPRPRPRPDRFPRP | -0.0614 |
| RRIRFRPPRLPRPRPRPNLLPRP | -0.187 |
| RRIRKRPPRLPRPRPRPELQPRP | 0.307 |
| RRIRMRPPRLPRPRPRPQQNPRP | 0.281 |
| RRIRSRPPRLPRPRPRPCSTPRP | 0.129 |
| RRIRCRPPRLPRPRPRPPMDPRP | 0.0314 |
| RRIRGRPPRLPRPRPRPKWDPRP | 0.771 |
| RRIRTRPPRLPRPRPRPAMNPRP | -0.405 |
| RRIRMRPPRLPRPRPRPMSKPRP | 0.0165 |
| RRIRMRPPRLPRPRPRPPKAPRP | 1.02 |
| RRIRDRPPRLPRPRPRPNCMPRP | 0.111 |
| RRIRRRPPRLPRPRPRPSGGPRP | 0.318 |
| RRIRNRPPRLPRPRPRPILYPRP | -0.267 |
| RRIRKRPPRLPRPRPRPKEWPRP | 0.222 |
| RRIRRRPPRLPRPRPRPAWSPRP | 0.321 |
| RRIRTRPPRLPRPRPRPARDPRP | 0.146 |
| RRIRCRPPRLPRPRPRPCRSPRP | 0.118 |
| RRIRHRPPRLPRPRPRPLAEPRP | 0.243 |
| RRIRIRPPRLPRPRPRPTEWPRP | 0.133 |
| RRIRYRPPRLPRPRPRPDDVPRP | 0.0235 |

— the supplement of paper PMC9112550, “Optimization of the antimicrobial peptide Bac7 by deep mutational scanning” (BMC Biology, 2022)
